B1: aCTLA-4.1 (antibody, V domains shown)
VH: QVQLVESGGGVVQPGRSLRLSCAASGFTFSRYGMHWVRQAPGKGLEWVAVIWYDGRNKYYADSVKGRFTISRDNSKNTLYLQMNSLRAEDTALYSCARAGELGPFDYWGQGTLVTVSS
VL: EIVLTQSPGTLSLSPGERATLSCRASQSVSYLAWYQQKPGQAPRLLIYGASSRATGIPDRFSGSGSGTDFTLTISRLEPEDFAVYYCQQYGSSPWTFGQGTKVEIK
B2: aCTLA-4.4 (antibody, V domains shown)
VH: QVQLVESGGGVVQPGRSLRLSCAASGFTFSNYGMNWVRQAPGKGLEWVAVIWYDGRNKHYADSVKGRFTISRDNSKNTLYLQMNSLRAEDTAVYYCARGGDWGPYFDYWGQGTLVTVSS
VL: not shown
B3: aCTLA-4.9 (antibody, V domains shown)
VH: QVQLVESGGGVVQPGRSLRLSCAASGFTFSSFGMHWVRQAPGKGLEWVAVIWYDGRNKYYVDSVKGRFTISRDNSNNTLYLQMNSLRAEDTAVYYCARGEFFGEFFDYWGQGTLVTVSS
VL: EIVLTQSPGTLSLSPGEGATLSCRASQSFSSNYLAWYQQKPGQAPRLLIYGASSRATGIPDRFSGSGSGTDFTLTISRLEPEDFAVYYCQQYGTSPFTFGPGTKVDIK
B4: aCTLA-4.24 (antibody, V domains shown)
VH: QVQLVESGGGVVQPGRSLRLSCAASGFTFSSHGMHWVRQAPGKGLEWVAVIWYDGSNKHYADSVKGRFTISRDNSKNTLYLQMNSLRAEDTAVYYCARGDILTGYYGYWGQGTLVTVSS
VL: not shown
B5: aCTLA-4.26 (antibody, V domains shown)
VH: QVQLVESGGGVVQPGRSLRLSCAASGFTFSSYGMHWVRQAPGKGLEWVAVIWYDGSYKYYADSVKGRFTISRDDSKNTLYLQMSSLRAEDTAVYYCARAPHYAILTGYYEDYWGQGTLVTVSS
VL: not shown

target: His-tagged human CTLA-4 antigen (Homo sapiens, UniProt P16410)
Sequence (P16410 36-161): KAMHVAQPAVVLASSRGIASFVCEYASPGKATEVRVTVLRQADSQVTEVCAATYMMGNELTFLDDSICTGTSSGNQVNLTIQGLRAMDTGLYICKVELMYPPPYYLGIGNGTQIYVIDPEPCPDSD

Which Kd does the source give for B1 here?
The Kd was 4.6 nM.

For B2, which Kd is on record?
Its Kd is 5.1 nM.

B3 was tested. Which Kd did it give?
Its Kd is 0.77 nM.

B4 was tested. Which Kd did it give?
Its Kd is 6.8 nM.

How did the Kd turn out when B5 was run?
Its Kd is 5.7 nM.

From publication doi:10.1101/2021.07.12.452090 (bioRxiv, 2021)
